According to US20250051821:

T1: IFF05588
T1 chain: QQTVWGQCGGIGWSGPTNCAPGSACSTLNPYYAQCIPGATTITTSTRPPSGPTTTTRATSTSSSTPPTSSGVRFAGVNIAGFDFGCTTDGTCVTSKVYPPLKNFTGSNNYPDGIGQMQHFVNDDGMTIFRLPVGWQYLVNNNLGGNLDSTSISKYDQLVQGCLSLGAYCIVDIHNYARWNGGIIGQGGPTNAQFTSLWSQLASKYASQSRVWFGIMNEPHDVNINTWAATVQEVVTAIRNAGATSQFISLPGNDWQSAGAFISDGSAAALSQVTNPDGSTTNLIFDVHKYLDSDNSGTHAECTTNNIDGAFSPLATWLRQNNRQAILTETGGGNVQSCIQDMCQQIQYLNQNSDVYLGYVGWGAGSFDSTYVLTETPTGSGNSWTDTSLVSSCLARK


Target: T1, IFF05588

Row | Protein | Relative late peak area (centered, scaled, averaged over 5, 10 and 15 min) | Relative late peak area (centered, scaled, averaged over doses, 24 h; sample diluted 10-fold) | Relative late peak area (reverse phase chromatography, 24 h) | Relative late peak area (centered, scaled, averaged over doses, 24 h; sample diluted 1-fold) | Relative late peak area (centered, scaled, averaged over doses, 24 h; sample diluted 2-fold)
1 | IFF21375 (protein) QTLDKPALTPNLDYLLQGNTDNLQPAASHYGKWEDGWIPADCKSIAEDQQLNPTDFEVYDVFYGDCGDAWSFCRHKSSSDSIDTIIDTFGRVPVRMRSWVRHVLTIPGDNWAFNSNGNIAFSGTTSQNLDVALHETGHSLDLLGAYGETLSSSQTWLDNYNQDPNVPDEYARSNQVENVAQNTVVGIYDKVVPGGFGSVQPNWGNIFHQYSTLQSMAKDTIIPGGTCDRHLANSETVSMASTQSNATRMARIRRVKPSHSFRQTYDNIVEGFTPFSTKDTCHFSWA | 1.08 | 0.42 | 0.63 | – | –
2 | IFF21352 (protein) NLNKPVIQPNFPSLAPGLMSHLSPTHSTWDDWGAGWIPRDCKSMVQGAGFSPNDIIPFNIHYDDCGQTWTFCRHKKSPLSELQILDMFGRLPVRMRSFIRHMVFVPGTRSAGSNGDNILVVGDGDITLFAHEIGHSLDSHAFDPSYGVPFSTGNVWVSNYNLDSAVSDSYAQSSQQENFAQETVISLFDKVVPGGIGTIQPNWRAIFHQYATLQGYIGNVIIPGGTCTHRLTDSPPVPMSGSAKSRRGLGLKPDVSLTPEVKEIEAIPMESSITMTSFNEQGKPSGTYVIHLK | -0.63 | – | – | 0.42 | –
3 | IFF21335 (protein) TLDKPVIQPNFPGNGLASLGQGLLDNLAPTHSTWDDWGAGWIPQDCKTLVEGAGFSASDVIPFNIHYDDCAQTWTFCRHKDSPLSEVQILDLFGRLPVRMRSFVRHLVFIPGNKSAGSSGDNVLMTGPVDITVYAHEIGHSLDSHAFDPSYGVPFSTGNVWISNYNLDSAVTDPYAQTSQQENFAQETVVSLYDKVVPGGIGTIQSNWQAIFHQYATLEGYIGDVIIPGGTCTHRLTDSPAVPMSGSAKLRRGLGPKPHVALSPEVEEIEAIPMKSSITMTSFDEAGKPNGTYVINL | 0.67 | 0.3 | 0.66 | – | –
4 | IFF21339 (protein) NLNKPVITPNFPGNGLASLGPGLMNNLAPTHSTWDDWGAGWIPSDCKSMVQGAGFSPNDIIPFNIHYDDCAQTWTFCRHKNSPLSEIQILDIFGRLPVRMRQFVRHLVFVPGNKSAGSNGDNVLMVGDVDVTVFAHEIGHSLDSHAFDSSYGVPFSTGNVWVSNYNLDSAVPDPYAQSSQQENFAQQTVVSLYDKVVPGGIGTIQPNWQAIFHQYATLEGYIGNVIIPGGTCTHRLTDSAPVTMSGSKKSRRALGPKPKVSLSPKVKEIEAIPMESSITMTSFDEHGKPNGTYVIHL | -0.05 | – | – | – | 0.53
5 | IFF21336 (protein) NLNKPVITPNFPGNGLASLGQGLMDHLAPTHSTWDDWGAGWIPQDCKSMVQGAGFSPNDIIPFNIHYDDCAQTWTFCRHKNSPLSEIQILDIFGRLPVRMRQFVRHLVFVPGNKSAGSNGDNVLMVGDVDVTVFAHEIGHSLDSHAFDPSYGVPFSTGNVWVSNYNLDSAVPDPYAQSSQQENFAQQTVVSIYDKVVPGGIGTIQPNWQAIFHQYATLEGYIGNVIIPGGTCTHRLTDSAPVTMSGSKKSRRALGPKPKVSLSPKVKEIEAIPMESSITMTSFDEHGKPNGTYVVHL | -0.34 | – | – | – | 0.36
6 | IFF21337 (protein) NLNKPVITPNFPGNGLASLGQGLMDHLAPTHSTWDDWGAGWIPSDCKSMVQGAGFSPNDIIPFNIHYDDCAQSWTFCRHKNSPLSEVQILDIFGRLPVRMRQFVRHLVFVPGNKSAGSNGDNVLMVGDVDVTVFAHEIGHSLDSHAFDPSYGVPFSTGNVWVSNYNLDSAVPDPYAQSSQQENFAQETVVSLYDKAVPGGIGTIQPNWQAIFHQYATLEGYIGDVIIPGGTCTHRLTDSAPVTMSGSKKSRRALGPKPKVSLSPKVKEIEAIPMESSITMTSFDEHGKPNGTYVVHL | 0.9 | 0.52 | – | – | –
7 | IFF21340 (protein) NLNKPVITPNFPGNGLASLGPGLMNNLAPTHSTWDDWGAGWIPADCKSMVQGAGFSPNDIIPFNIHYDDCAQSWTFCRHKNSPLSEIQILDIFGRLPVRMRQFVRHLVFVPGNKSAGSNGDNVLMVGDVDVTVFAHEIGHSLDSHAFDPSYGVPFSTGNVWVSNYNLDSAVPDPYAQSSQQENFAQQTVVSIYDKVVPGGIGTIQPNWQAIFHQYATLEGYIGNVIIPGGTCTHRLTDSAPVTMSGSKKSRRALGPKPKVSLSPKVKEIEAIPMESSITMTSFDEHGKPNGTYVVHL | -0.31 | – | 0.33 | – | 0.37
8 | IFF21378 (protein) LDKPALTPDLDYLLDGNTANLPQNGGAHWGKWEDGLMPEDCKSIAEGQDLNPADFEVYDVFYDDCQDAWSFCRHKDSPEDLETLVNTFGRVPVRMRSWVRHVLSIPGNNWAFNSNGNIALSGTTTHNLDVCLHETGHSLDLLGAYVDGALSSTQEWEDAYNKDSAVPDNYARTNQVENVAQNTVVGIYDKVVPGGFPGVQSESQKIENQYKLLQDKAGEQILPGGTCDRHLQNSATVSIKSSSKRENKVVKAREAHDSALKGTYTNIVKEFTPFNTKDFHEEH | -0.6 | – | 0.52 | 0.1 | –
9 | IFF21349 (protein) VLDKPVIQPNFPGGGLDSLSQGLLDNLAPTQSTWDEWGAGWIPQDCKTLAEGSGFSALDITTFNIYYTDCADAWVFCRHKDAPLSEIDMIDLFGRMPVRMRDFVRHIIAVPGNPSAGSSGDNIQMNGGLPITVFVHETGHSLDSHAFSEPFSLSQAWIDAYNQDSAVPDSYAQTSQQENFAQETVVALYDKVVPGGVGTIQPNWNAIFHAYATLQGYIGDVIIPGGTCVNRLTNSAPVPQSNSAKVRIASEKPDVTLRGNVTVLESIPMGSSIELTHFDAEGKPTGRSTVNLG | 0.02 | – | – | – | 0.56
10 | IFF21367 (protein) QNLNKPVLFTDGLSPHVDSVFFQHLTPTQSTWDQWGWGWIPQACLSVVQGTQFSPYDIEVYNVHYTDCASAVVMCRHNQAQMSIINMIDAFGRVPIHDRQWTQHILALPASSCSAGTGGAVTTFYGPCYIPSVFVHELTHTLDAYVNDQTGSTGSVHVYSTTSSYLNSVNQDSCVPDGYANTSPQEDYAQTSVLALYEKVNPGGLDPIGNWRCLVNAKNNLDSIIGQELTPGGSCTHRWADSAIVCMGPAAGCASSKRGFSTRRGARVAGPKPEPANKKGDPLVSNLTPDLTSAVNAKIDDFSHLVSNHTASIEATIRINAWNKAAGKKTVPVPTA | -0.67 | – | – | 0.19 | –
11 | IFF21365 (protein) DDTLSKPALTDNLDYLLDGNVASLPSNGGPYWGKWEDGLMPADCKSIAEDQGLNPTDFEVWDIFFDDCQDGWSFCRHKDSADSFETLVDTFGRVPVRMRSWVRHVLTIPGDNWAFNSNGNICFSGTTSQNLDVALHETGHSLDLLGAYGDGALSSSQEWLDAYNADSNVPDNYARSNQVENVAQNTVVAVYDKNVPGGFPGVQTDYAKIQNQYTLVEDKAGDQIVPGGTCDRHLENSETVPMSGSSAKRDIRIKGRAVGAGAVTHDWKFKGTYSNIVTDFEPFNSKDFHH | 1.04 | 0.38 | 0.61 | – | –
